Test results from publication PMC3961392 (PLoS Pathogens, 2014).

Tests used:
[1] = target: the molecule itself; experiment: SEC; 10-15 µg of purified enzyme (low enzyme concentration) on a 10 mL Superdex 200 column; 50 mM Tris pH 7.5, 200 mM NaCl; masses and oligomerization states from a Bio-Rad gel filtration standard curve
[2] = target: the molecule itself; experiment: SEC; data not shown; oligomerization state of the mutant enzymes, method as told for the A3 enzymes (Superdex 200, 50 mM Tris pH 7.5, 200 mM NaCl)

Protein | stoichiometry N [1] | stoichiometry N [2]
APOBEC3F (enzyme, human, UniProt Q8IUX4 1-373, looked up, also called A3F; not shown: GST, N-terminal, cleaved) MKPHFRNTVERMYRDTFSYNFYNRPILSRRNTVWLCYEVKTKGPSRPRLDAKIFRGQVYSQPEHHAEMCFLSWFCGNQLPAYKCFQITWFVSWTPCPDCVAKLAEFLAEHPNVTLTISAARLYYYWERDYRRALCRLSQAGARVKIMDDEEFAYCWENFVYSEGQPFMPWYKFDDNYAFLHRTLKEILRNPMEAMYPHIFYFHFKNLRKAYGRNESWLCFTMEVVKHHSPVSWKRGVFRNQVDPETHCHAERCFLSWFCDDILSPNTNYEVTWYTSWSPCPECAGEVAEFLARHSNVNLTIFTARLYYFWDTDYQEGLRSLSQEGASVEIMGYKDFKYCWENFVYNDDEPFKPWKGLKYNFLFLDSKLQEILE | 4 | 
APOBEC3F NGM mutant (enzyme, human, UniProt Q8IUX4 1-373, looked up, also called A3F NGM; A3F 190NGM192; not shown: GST, N-terminal, cleaved) MKPHFRNTVERMYRDTFSYNFYNRPILSRRNTVWLCYEVKTKGPSRPRLDAKIFRGQVYSQPEHHAEMCFLSWFCGNQLPAYKCFQITWFVSWTPCPDCVAKLAEFLAEHPNVTLTISAARLYYYWERDYRRALCRLSQAGARVKIMDDEEFAYCWENFVYSEGQPFMPWYKFDDNYAFLHRTLKEILRNGMEAMYPHIFYFHFKNLRKAYGRNESWLCFTMEVVKHHSPVSWKRGVFRNQVDPETHCHAERCFLSWFCDDILSPNTNYEVTWYTSWSPCPECAGEVAEFLARHSNVNLTIFTARLYYFWDTDYQEGLRSLSQEGASVEIMGYKDFKYCWENFVYNDDEPFKPWKGLKYNFLFLDSKLQEILE |  | 4
